Experimental data from PMC3026963.

Molecular target: protein kinase CK2 catalytic subunit α (human) (UniProt P68400)
Sequence (P68400 whole entry): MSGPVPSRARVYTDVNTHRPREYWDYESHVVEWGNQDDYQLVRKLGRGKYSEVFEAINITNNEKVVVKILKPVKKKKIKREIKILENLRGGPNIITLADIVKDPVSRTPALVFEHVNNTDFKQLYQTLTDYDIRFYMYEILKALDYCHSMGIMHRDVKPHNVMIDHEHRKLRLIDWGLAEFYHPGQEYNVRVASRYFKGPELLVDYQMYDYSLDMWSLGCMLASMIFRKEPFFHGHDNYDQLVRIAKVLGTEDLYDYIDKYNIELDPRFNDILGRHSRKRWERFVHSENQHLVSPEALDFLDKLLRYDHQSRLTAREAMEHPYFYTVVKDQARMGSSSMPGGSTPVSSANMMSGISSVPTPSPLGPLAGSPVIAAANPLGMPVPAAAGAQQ

Sequence of β-peptide(181–203) (P67870 181-203): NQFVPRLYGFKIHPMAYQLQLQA

Kd: 8.45 µM
Substance: β-peptide(181–203) (from UniProt P67870 181-203)
